Reference: patent US20240116985A1 (published 2024)
Starred links: 1 amine or outer side, 2 acyl side, 3 side chain; linkers in the order of their positions; H or OH if unused. Positions of bridges follow the written chain, without caps; N, C: chain ends. Non-standard residues stand in square brackets, D forms with d. Primed or numbered codes have the meaning given here. *: point of attachment. B5(10) = 2-amino-2-(pent-4-en-1-yl)hept-6-enoic acid, bis(4-pentenyl)glycine, stitching residue bearing both staples, C=CCCCC(CCCC=C)(N[*:1])C(=O)[*:2]; PyrS2″ = (S)-3-amino-1-((pent-4-en-1-yloxy)carbonyl)pyrrolidine-3-carboxylic acid (stapling residue), C=CCCCOC(=O)N1CC[C@@](N[*:1])(C(=O)[*:2])C1; TfeGA = (S)-2-amino-3-((carboxymethyl)(2,2,2-trifluoroethyl)amino)propanoic acid, O=C([C@H](CN(CC(=O)[*:3])CC(F)(F)F)N[*:1])[*:2]; PyrS2 = (S)-3-amino-1-((pent-4-en-1-yloxy)carbonyl)pyrrolidine-3-carboxylic acid, C=CCCCOC(=O)N1CC[C@@](N[*:1])(C(=O)[*:2])C1; B5(3) = 2,2-bis(4-pentenyl)glycine (stitching residue), C=CCCCC(CCCC=C)(N[*:1])C(=O)[*:2]; Phe(2-Cl) = N[C@@H](Cc1ccccc1Cl)C(=O)O; Bta = N[C@@H](Cc1csc2ccccc12)C(=O)O; αAllylPro = C=CC[C@@]1(C(=O)O)CCCN1; tBuAla = CC(C)(C)C[C@H](N)C(=O)O; S8 = C=CCCCCCC[C@](C)(N)C(=O)O; hSer = N[C@@H](CCO)C(=O)O; Alaol = C[C@@H](CO)N*

Experiments:
[1] = target: T1, beta-catenin in DLD1 TCF/LEF luciferase reporter cells (UniProt P35222 1-781); assay: cell-based or functional assay
T1 sequence (looked up): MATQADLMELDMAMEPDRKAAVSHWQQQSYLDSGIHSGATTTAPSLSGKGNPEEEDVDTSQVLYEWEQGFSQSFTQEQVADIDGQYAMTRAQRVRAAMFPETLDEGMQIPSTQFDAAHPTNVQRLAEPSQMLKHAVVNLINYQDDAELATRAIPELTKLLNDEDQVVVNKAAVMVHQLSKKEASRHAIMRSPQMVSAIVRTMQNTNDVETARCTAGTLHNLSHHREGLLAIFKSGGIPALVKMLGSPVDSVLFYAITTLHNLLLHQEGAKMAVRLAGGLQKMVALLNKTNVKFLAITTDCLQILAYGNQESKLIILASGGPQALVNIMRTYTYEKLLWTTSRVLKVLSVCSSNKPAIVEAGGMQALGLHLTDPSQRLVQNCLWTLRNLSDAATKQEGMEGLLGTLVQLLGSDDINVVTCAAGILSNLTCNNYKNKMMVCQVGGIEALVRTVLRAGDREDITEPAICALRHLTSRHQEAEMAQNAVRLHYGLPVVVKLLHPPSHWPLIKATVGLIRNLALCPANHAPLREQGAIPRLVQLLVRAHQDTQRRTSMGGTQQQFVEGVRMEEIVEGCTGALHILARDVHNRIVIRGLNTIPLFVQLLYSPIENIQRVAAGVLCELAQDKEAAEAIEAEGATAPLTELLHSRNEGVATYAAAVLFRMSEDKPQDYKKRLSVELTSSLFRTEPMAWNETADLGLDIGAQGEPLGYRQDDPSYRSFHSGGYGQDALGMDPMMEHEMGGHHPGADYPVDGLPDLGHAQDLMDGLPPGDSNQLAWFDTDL

B-cat-Halo = target: T2, B-cat-Halo (UniProt P35222 1-781); assay: cell-based or functional assay
T2 sequence (looked up): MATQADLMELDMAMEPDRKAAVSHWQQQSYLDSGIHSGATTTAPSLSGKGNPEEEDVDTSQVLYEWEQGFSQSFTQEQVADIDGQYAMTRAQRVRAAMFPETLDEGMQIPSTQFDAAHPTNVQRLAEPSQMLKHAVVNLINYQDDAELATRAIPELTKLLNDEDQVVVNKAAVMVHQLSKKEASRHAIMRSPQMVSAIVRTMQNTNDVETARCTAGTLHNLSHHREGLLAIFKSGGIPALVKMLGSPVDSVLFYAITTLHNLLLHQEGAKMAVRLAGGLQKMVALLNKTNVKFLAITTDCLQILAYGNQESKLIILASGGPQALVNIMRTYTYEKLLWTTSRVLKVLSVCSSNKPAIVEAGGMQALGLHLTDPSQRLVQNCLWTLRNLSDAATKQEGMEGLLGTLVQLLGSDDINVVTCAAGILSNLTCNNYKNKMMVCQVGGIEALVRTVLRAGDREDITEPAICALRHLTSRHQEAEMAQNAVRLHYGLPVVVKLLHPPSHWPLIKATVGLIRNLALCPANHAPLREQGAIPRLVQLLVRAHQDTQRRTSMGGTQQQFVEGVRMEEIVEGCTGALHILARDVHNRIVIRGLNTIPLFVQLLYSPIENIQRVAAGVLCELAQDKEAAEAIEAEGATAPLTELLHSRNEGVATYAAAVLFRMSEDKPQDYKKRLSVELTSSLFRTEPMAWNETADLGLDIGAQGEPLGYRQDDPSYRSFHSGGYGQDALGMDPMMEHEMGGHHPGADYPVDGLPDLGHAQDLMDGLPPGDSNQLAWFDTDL

[2] = target: T3, full-length beta-Catenin (Uniprot ID P35222) (Homo sapiens (Human), UniProt P35222 1-781); assay: fluorescence polarization competition; full-length beta-catenin + 5FAM-TCF4(10-53) probe
T3 construct: also called bCat; B-Catenin
T3 sequence: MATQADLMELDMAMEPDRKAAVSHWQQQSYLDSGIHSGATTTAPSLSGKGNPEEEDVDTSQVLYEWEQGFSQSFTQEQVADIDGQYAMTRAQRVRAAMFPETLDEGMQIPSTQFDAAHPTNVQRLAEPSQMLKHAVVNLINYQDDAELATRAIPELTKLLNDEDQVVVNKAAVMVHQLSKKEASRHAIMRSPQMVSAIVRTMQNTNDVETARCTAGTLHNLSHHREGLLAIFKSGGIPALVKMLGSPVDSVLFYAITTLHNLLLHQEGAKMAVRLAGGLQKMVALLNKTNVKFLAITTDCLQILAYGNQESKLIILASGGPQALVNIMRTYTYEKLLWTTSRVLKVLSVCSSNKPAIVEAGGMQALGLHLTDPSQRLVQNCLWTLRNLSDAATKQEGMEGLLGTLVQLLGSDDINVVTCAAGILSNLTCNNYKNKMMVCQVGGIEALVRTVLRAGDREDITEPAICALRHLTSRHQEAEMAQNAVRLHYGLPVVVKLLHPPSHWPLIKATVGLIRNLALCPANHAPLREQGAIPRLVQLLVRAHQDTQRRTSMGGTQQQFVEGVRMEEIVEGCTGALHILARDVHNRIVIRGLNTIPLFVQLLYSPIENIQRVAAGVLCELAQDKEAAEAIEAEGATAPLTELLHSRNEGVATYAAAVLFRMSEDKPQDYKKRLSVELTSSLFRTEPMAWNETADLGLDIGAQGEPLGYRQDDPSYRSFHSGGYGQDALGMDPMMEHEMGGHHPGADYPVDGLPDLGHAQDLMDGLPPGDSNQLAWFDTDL
Procedure: The plate was incubated protected from light for 60 minutes at 20° C. prior to read. Reads were performed on a CLARIOstar plate reader (BMG Labtech) in duplicate, and data were fitted to a 1:1 binding model with hill slope using an in-house script. All provided concentrations are final concentrations.

[3] = target: T4, beta-catenin in DLD1 TCF/LEF luciferase reporter cells (UniProt P35222 1-781); assay: cell-based or functional assay; remark: listed apart in the source
T4 sequence (looked up): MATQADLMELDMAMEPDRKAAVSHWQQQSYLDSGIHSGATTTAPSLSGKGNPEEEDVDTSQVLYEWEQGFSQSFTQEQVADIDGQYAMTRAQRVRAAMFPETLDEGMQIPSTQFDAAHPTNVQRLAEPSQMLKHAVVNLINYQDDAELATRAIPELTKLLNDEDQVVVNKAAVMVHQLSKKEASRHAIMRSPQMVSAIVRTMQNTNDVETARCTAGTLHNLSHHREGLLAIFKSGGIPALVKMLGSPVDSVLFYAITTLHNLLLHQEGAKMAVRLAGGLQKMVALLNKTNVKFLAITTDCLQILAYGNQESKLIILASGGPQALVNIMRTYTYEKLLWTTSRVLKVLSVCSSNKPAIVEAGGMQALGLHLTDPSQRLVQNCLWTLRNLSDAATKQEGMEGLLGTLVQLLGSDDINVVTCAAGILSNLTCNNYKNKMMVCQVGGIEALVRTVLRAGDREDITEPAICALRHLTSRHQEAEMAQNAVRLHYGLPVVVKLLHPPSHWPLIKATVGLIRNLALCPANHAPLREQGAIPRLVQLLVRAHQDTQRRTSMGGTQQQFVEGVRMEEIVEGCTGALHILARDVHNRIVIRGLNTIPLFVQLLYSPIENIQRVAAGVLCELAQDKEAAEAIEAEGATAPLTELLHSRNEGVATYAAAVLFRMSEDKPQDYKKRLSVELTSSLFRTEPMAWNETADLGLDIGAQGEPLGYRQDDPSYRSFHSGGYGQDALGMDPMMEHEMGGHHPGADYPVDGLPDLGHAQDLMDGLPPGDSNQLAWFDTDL

[4] = target: T5, B-cat-Halo (beta-catenin HaloTag NanoBRET construct expressed in HEK293 cells) (UniProt P35222 1-781); assay: cell-based or functional assay
T5 sequence (looked up): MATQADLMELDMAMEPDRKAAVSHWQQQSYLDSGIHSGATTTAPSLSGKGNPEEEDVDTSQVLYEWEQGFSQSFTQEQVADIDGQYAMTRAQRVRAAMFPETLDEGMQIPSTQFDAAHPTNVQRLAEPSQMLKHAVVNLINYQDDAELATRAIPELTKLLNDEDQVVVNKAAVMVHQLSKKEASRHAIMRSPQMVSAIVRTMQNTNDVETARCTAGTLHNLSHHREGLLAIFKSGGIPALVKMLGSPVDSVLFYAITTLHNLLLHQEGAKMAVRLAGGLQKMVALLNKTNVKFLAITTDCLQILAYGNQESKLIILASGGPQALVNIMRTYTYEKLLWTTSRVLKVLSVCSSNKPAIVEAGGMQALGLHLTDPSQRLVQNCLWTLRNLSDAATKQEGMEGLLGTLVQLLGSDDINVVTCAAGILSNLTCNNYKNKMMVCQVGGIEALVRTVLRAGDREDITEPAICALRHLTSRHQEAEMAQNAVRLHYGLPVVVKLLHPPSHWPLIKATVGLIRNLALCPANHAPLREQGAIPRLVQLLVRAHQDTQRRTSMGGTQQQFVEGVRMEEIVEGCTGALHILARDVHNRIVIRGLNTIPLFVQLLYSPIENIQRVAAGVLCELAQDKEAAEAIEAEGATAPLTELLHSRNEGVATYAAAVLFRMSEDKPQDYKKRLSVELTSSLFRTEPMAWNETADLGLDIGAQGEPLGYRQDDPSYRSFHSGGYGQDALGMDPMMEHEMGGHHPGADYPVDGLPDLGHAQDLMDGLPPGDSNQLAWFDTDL

With Ac-[αAllylPro]D[tBuAla][B5(3)]D[TfeGA]AAFS[S8][Phe(2-Cl)][Bta][hSer]-NH2 (staple 1-4, 4-11; also: later-eluting HPLC isomer) [I-999] the “DLD1 4% Abs IC50” value [1] was 5.6 µM and the “NanoBRET Abs IC50” value (B-cat-Halo) was 26.3 µM.

B1: I-1286 (peptide)
peptide: Ac-[αAllylPro]NA[B5(10)]DTAAFL[PyrS2]F[Bta]Q-NH2
modifications: staple 1-4, 4-11; not fully specified; printed as Ac-PL3-Asn-Ala-B5-Asp-Thr-Ala-Ala-Phe-Leu-PyrS2-Phe-BztA-Gln-NH2
B1 was tested, and the EC50 [2] was 10 µM.

With Ac-[αAllylPro]D[tBuAla][B5(3)]DDAAFN[PyrS2″][Phe(2-Cl)][Bta]-Alaol (staple 1-4, 4-11) [I-1081] the “DLD1 reporter assay Abs IC50” value [3] was 10 µM and the “NanoBRET Abs IC50” value [4] was 16.7 µM.
